Data: article PMC12112590, “NDF/GLYR1 Promotes RNA Polymerase II Processivity via Pol II Binding and Nucleosome Destabilization” (International Journal of Molecular Sciences, 2025)

Biological target: T1, Rpb1 subunit of yeast Pol II (S. cerevisiae, UniProt P04050 1-1733)
T1 construct: Rpb1, largest subunit of S. cerevisiae RNA polymerase II; identified as the labelled band after SDS-PAGE; source: subunit within purified S. cerevisiae Pol II
Assay: proximity labelling; in vitro biotinylation (BioID): 0-8 pmol hNDF-BirA* with 25 pmol yPol II in 20 μL; 20 mM HEPES pH 7.5, 10 mM MgCl2, 100 mM KCl, 1.5 mM ATP, 5% glycerol, 0.5 μM biotin; 30 °C, 1 h; SDS-PAGE and streptavidin-HRP blot
Settings: both partners purified

T1 sequence (P04050 whole entry): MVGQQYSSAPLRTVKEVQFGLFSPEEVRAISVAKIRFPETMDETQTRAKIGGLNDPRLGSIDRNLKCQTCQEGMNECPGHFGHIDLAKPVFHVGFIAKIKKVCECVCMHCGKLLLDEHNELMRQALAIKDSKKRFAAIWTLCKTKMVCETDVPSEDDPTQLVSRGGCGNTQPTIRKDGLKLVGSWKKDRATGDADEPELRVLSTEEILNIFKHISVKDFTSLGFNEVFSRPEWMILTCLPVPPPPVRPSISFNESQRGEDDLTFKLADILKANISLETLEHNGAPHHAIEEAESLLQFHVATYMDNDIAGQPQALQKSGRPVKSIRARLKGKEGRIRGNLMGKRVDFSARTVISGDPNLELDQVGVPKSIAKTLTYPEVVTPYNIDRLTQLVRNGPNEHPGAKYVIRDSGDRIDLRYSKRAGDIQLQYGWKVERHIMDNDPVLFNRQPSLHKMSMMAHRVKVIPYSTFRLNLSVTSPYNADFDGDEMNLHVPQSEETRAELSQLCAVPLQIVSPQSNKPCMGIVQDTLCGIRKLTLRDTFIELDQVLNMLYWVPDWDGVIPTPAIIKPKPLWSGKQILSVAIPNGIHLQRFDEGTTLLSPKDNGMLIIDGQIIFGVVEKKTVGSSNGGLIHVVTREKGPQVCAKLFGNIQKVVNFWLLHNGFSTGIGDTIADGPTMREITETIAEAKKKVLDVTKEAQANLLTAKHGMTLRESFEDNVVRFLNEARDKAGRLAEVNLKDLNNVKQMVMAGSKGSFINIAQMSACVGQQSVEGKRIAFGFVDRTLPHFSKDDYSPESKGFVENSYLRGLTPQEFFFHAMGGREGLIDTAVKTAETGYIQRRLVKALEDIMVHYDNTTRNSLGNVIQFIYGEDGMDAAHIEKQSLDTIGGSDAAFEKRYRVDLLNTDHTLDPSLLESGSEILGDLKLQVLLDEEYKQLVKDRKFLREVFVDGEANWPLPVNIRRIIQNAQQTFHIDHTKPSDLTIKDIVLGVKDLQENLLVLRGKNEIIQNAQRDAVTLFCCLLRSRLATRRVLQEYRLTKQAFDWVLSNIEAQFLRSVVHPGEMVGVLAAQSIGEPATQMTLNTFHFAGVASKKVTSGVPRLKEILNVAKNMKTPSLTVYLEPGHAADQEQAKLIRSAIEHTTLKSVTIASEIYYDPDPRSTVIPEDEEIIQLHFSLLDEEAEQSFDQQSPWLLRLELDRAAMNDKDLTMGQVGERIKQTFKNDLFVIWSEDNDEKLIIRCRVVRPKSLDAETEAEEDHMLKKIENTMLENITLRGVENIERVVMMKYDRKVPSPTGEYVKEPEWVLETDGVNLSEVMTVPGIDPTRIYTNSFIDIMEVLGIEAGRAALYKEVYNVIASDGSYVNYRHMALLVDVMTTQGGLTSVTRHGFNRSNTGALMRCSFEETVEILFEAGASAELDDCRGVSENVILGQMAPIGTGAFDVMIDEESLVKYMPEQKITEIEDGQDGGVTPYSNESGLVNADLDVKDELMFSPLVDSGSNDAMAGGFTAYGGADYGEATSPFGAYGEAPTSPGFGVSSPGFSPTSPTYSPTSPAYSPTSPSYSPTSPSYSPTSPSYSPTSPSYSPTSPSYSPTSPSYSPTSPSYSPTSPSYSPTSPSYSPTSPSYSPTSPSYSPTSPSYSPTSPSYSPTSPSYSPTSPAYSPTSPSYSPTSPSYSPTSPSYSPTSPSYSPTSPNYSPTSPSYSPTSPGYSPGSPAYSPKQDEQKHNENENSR

B1: BirA*-hNDF fusion protein (natural protein, human, UniProt Q49A26 1-553, looked up)
chain: MAAVSLRLGDLVWGKLGRYPPWPGKIVNPPKDLKKPRGKKCFFVKFFGTEDHAWIKVEQLKPYHAHKEEMIKINKGKRFQQAVDAVEEFLRRAKGKDQTSSHNSSDDKNRRNSSEERSRPNSGDEKRKLSLSEGKVKKNMGEGKKRVSSGSSERGSKSPLKRAQEQSPRKRGRPPKDEKDLTIPESSTVKGMMAGPMAAFKWQPTASEPVKDADPHFHHFLLSQTEKPAVCYQAITKKLKICEEETGSTSIQAADSTAVNGSITPTDKKIGFLGLGLMGSGIVSNLLKMGHTVTVWNRTAEKCDLFIQEGARLGRTPAEVVSTCDITFACVSDPKAAKDLVLGPSGVLQGIRPGKCYVDMSTVDADTVTELAQVIVSRGGRFLEAPVSGNQQLSNDGMLVILAAGDRGLYEDCSSCFQAMGKTSFFLGEVGNAAKMMLIVNMVQGSFMATIAEGLTLAQVTGQSQQTLLDILNQGQLASIFLDQKCQNILQGNFKPDFYLKYIQKDLRLAIALGDAVNHPTPMAAAANEVYKRAKALDQSDNDMSAVYRAYIH
notes: human NDF / GLYR1 fused to the promiscuous biotin ligase BirA*; The name is printed in both orders (BirA*-hNDF, hNDF-BirA*); the construct's name puts BirA* before hNDF; also called hNDF-BirA*; hNDF-BirA; source: pET21b-N-His6-BirA*-hNDF expression construct, purified as previously described [44]; not shown: BirA* (promiscuous biotin ligase), N-terminal, kept
  binding result: binds
